Laboratory results published in publication PMC8908268 (The Journal of Biological Chemistry, 2022).
Values joined by “and” are separate entries in the source; they are usually repeats but may differ in a detail not shown here. Equal values may be shown once.

T1: Halo-tagged full-length Gads (Grb2-related adapter protein downstream of Shc), 1–322aa (UniProt O89100 1-322)
T1 sequence: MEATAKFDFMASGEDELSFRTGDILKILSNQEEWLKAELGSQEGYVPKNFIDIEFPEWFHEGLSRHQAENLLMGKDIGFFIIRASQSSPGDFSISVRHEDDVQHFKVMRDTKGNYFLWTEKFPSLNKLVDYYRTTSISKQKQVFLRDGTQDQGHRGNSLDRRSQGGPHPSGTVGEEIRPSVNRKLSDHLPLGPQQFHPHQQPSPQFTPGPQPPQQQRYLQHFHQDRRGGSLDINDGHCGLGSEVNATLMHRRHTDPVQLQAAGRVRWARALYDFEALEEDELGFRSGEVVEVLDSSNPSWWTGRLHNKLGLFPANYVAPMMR


Experiments:
[1] = biological target: T1, Halo-tagged full-length Gads …; assay: co-sedimentation
[2] = biological target: His-tagged, doubly phosphorylated LAT (48–233aa; pY132 and pY171) (UniProt O43561); assay: co-sedimentation

binding result [1] | % of protein binding to LUV [2] | Binder
binds | – | SLP-76 tyrosine- and proline-rich domains (103–258aa with Y113F and Y173F mutations) (domain or fragment) GGWSSFEEDDFESPNDDQDGEDDGDYESPNEEEEAPVEDDADYEPPPSNDEEALQNSILPAKPFPNSNSMFIDRPPSGKTPQQPPVPPQRPMAALPPPPAGRNHSPLPPPQTNHEEPSRSRNHKTAKLPAPSIDRSTKPPLDRSLAPFDREPFTLG
– | 26.3% and 31.4% and 42.8% | Halo-tagged full-length Gads (Grb2-related adapter protein downstream of Shc), 1–322aa (natural protein) MEATAKFDFMASGEDELSFRTGDILKILSNQEEWLKAELGSQEGYVPKNFIDIEFPEWFHEGLSRHQAENLLMGKDIGFFIIRASQSSPGDFSISVRHEDDVQHFKVMRDTKGNYFLWTEKFPSLNKLVDYYRTTSISKQKQVFLRDGTQDQGHRGNSLDRRSQGGPHPSGTVGEEIRPSVNRKLSDHLPLGPQQFHPHQQPSPQFTPGPQPPQQQRYLQHFHQDRRGGSLDINDGHCGLGSEVNATLMHRRHTDPVQLQAAGRVRWARALYDFEALEEDELGFRSGEVVEVLDSSNPSWWTGRLHNKLGLFPANYVAPMMR
